“And” between values parts separate entries of the source, which are not always exact repeats. Equal entries are not always repeated.
Experiments:
[1] = target: MP variants with one or two Glu-to-Ala mutations; assay: fluorescence polarisation
[2] = target: fluorophore-labeled core peptide Fl_PsnA2(28-38); assay: fluorescence polarisation
[3] = target: fluorophore-labeled minimal precursor peptide Fl_PsnA2(14-38); assay: fluorescence polarisation
PsnB = assay: crystal structure

PsnB (enzyme) was tested, and the fold reduction of the affinity against MP [1] was 10 fold and 4 fold, the Kd [2] was over 100 µM and the fold enhancement of the interaction with ADP (1 mM) against no nucleotide [3] was 9 fold. The fold enhancement of the interaction with AMPPNP (1 mM) against no nucleotide [3] was 2 fold, the fold tighter binding than the LP (Fl LP) [3] was 6 fold and the stoichiometry N (PsnB) was 2.
Work on leader-fused PsnB (enzyme) yielded a Kd [2] of 11 µM.
